# Test results as given in publication PMC10294715, “Single-cell RNA-seq uncovers dynamic processes orchestrated by RNA-binding protein DDX43 in chromatin remodeling during spermiogenesis”.
# Molecular target: DDX43 (Mus musculus, UniProt D3Z6P9 1-646)
# Test: EMSA; EMSA: 10 nM biotin-RNA, 50 mM Tris-HCl pH 7.5, 100 mM KCl, 2.5% glycerol, 0.05% NP-40, 4 mM EDTA, 1 mM DTT, RiboLock 2 U, 37 C 30 min; 8% native TBE PAGE at 4 C; G4 folded in 50 mM Tris-HCl pH 7.5, 150 mM KCl, 0.1 mM EDTA
# Settings: protein: recombinant; tags: His tag (Ni-NTA, pET28a); label: 3' biotin; single strand
# Chain of DDX43 (D3Z6P9 entry or part of it): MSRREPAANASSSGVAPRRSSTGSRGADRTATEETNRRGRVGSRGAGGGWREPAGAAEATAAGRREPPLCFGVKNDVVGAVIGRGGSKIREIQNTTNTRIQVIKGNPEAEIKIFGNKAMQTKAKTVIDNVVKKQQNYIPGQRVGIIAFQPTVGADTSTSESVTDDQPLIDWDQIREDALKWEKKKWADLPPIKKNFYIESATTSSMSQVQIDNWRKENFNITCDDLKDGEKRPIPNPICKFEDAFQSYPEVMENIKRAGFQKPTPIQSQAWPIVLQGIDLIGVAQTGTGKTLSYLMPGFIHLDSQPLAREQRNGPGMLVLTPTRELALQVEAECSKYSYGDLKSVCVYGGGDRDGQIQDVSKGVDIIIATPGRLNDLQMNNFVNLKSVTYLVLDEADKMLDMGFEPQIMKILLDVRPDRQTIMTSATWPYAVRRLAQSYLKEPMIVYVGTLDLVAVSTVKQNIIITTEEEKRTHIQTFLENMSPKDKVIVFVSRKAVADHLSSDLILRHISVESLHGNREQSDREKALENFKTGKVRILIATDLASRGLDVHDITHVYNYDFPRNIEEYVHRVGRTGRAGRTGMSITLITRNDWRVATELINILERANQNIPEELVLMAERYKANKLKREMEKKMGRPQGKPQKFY
binder,measurement,value
ACCGCUGCCGUCGCUCCG (ssRNA) [ssRNA],binding result,no binding
